This note sets out measurements from publication PMC8831596, “Structures of highly flexible intracellular domain of human α7 nicotinic acetylcholine receptor” (Nature Communications, 2022).

To fix the notation:
B1: human α7 nicotinic acetylcholine receptor TMD+ICD construct used for NMR (domain or fragment)
chain: SNAEEELYYGLNLLIPCVLISALALLVFLLPADSGEKISLGITVLLSLTVFMLLVAEIMPSTSDSSPSIAQYFASTMIIVGLSVVVTVIVLQYHHHDPDGGKMPKWTRVILLNWCAWFLRMKRPGEDKVRPACQHKQRRCSLASVEMSAVAPPPASNGNLLYIGFRGLDGVHCVPTPDSGVVCGRMACSPTHDEHLLHGGQPPEGDPDLAKILEEVRYIANRFRCQDESEAVCSEWKFAACVVDRLCLMAFSVFTIICTIGILMSAPNFVEE
notes: also called α7nAChR(TMD+ICD)NMR; α7nAChR TMD-ICD; source: E. coli Rosetta 2(DE3) pLysS, purified (NiNTA, SEC)
B2: α7nAChR TMD+ICD C219, single-cysteine construct labelled with MTSL (domain or fragment)
chain: B1 chain
modifications: MTSL on C219
B3: human α7 nicotinic acetylcholine receptor TMD + ICD construct (L209-V472) (domain or fragment, UniProt P36544 231-494, looked up)
chain: LYYGLNLLIPCVLISALALLVFLLPADSGEKISLGITVLLSLTVFMLLVAEIMPATSDSVPLIAQYFASTMIIVGLSVVVTVIVLQYHHHDPDGGKMPKWTRVILLNWCAWFLRMKRPGEDKVRPACQHKQRRCSLASVEMSAVAPPPASNGNLLYIGFRGLDGVHCVPTPDSGVVCGRMACSPTHDEHLLHGGQPPEGDPDLAKILEEVRYIANRFRCQDESEAVCSEWKFAACVVDRLCLMAFSVFTIICTIGILMSAPNFV
notes: human α7 nicotinic acetylcholine receptor, transmembrane domain plus intracellular domain, 264 residues L209-V472; Single-cysteine, spin-labelled and isotope-labelled versions gave the NMR and ESR restraints for the structure; also called α7nAChR TMD + ICD; source: E. coli Rosetta 2(DE3) pLysS, purified (NiNTA, SEC; pentamer fraction, in DPC or LDAO)
B4: PDZ domain of the intracellular scaffold protein PICK1 (domain or fragment, UniProt Q9NRD5 22-105, looked up)
chain: KVTLQKDAQNLIGISIGGGAQYCPCLYIVQVFDNTPAALDGTVAAGDEITGVNGRSIKGKTKVEVAKMIQEVKGEVTIHYNKLQ
notes: PICK1, PDZ domain; also called PICK1 PDZ domain

Series [1] addresses B4. Briefly: SPR; steady state; α7nAChR immobilised on an NTA sensor chip (1000-2000 RU), PICK1 PDZ domain flowed at 30 μl/min, 25 °C, Biacore 3000; receptor in 0.05% LDAO; apparent dissociation constants, Langmuir isotherm, n=3. As to conditions: both partners purified.
Series [2] concerns the molecule itself. The experiment in a line: SEC; Superdex 200 10/300 Increase GL, 10 mM sodium acetate pH 4.8, 100 mM NaCl, 0.05% LDAO; elution peak at 12.6 ml. For orientation: In gel filtration, larger molecules generally elute earlier.
Series [3] deals with B4. The experiment in a line: SPR; steady state; α7nAChR immobilised on an NTA sensor chip (1000-2000 RU), PICK1 PDZ domain flowed at 30 μl/min, 25 °C, Biacore 3000; receptor in 0.05% DDM; apparent dissociation constants, Langmuir isotherm, n=3. The following applies: both partners purified.
Series [4] deals with the molecule itself. The experiment in a line: DEER ESR; MTSL-labelled TMD+ICD C219 in LDAO micelles; non-adjacent/adjacent distance ratio ~1.6.
Series [5] concerns the molecule itself. The experiment in a line: not stated; result shown in Supplementary Fig. 2 (not shown); the methods tell only that the pentamer fraction was isolated by SEC (S200 10/300, 20 mM HEPES pH 7.4, 300 mM NaCl, 0.2% DPC or 0.1% LDAO).
The target in series [6] is T1, full-length human α7 nicotinic acetylcholine receptor (human, UniProt P36544 23-502).
T1 construct: human α7 nicotinic acetylcholine receptor, UniProtKB P36544 ACHA7_HUMAN, full length; also called α7nAChR; full length α7nAChR; source: E. coli Rosetta 2(DE3) pLysS, purified (NiNTA, SEC)
Briefly: SPR; steady state; α7nAChR immobilised on an NTA sensor chip (1000-2000 RU), PICK1 PDZ domain flowed at 30 μl/min, 25 °C, Biacore 3000; receptor in 0.05% LDAO; apparent dissociation constants, Langmuir isotherm, n=3. The following applies: both partners purified. A general note: Surface plasmon resonance follows binding to a sensor surface in real time, without labels.

Series [7] deals with T1, full-length human α7 nicotinic …. Briefly: SPR; steady state; α7nAChR immobilised on an NTA sensor chip (1000-2000 RU), PICK1 PDZ domain flowed at 30 μl/min, 25 °C, Biacore 3000; receptor in 0.05% DDM; apparent dissociation constants, Langmuir isotherm, n=3. The following applies: both partners purified.

T1 sequence (P36544 23-502): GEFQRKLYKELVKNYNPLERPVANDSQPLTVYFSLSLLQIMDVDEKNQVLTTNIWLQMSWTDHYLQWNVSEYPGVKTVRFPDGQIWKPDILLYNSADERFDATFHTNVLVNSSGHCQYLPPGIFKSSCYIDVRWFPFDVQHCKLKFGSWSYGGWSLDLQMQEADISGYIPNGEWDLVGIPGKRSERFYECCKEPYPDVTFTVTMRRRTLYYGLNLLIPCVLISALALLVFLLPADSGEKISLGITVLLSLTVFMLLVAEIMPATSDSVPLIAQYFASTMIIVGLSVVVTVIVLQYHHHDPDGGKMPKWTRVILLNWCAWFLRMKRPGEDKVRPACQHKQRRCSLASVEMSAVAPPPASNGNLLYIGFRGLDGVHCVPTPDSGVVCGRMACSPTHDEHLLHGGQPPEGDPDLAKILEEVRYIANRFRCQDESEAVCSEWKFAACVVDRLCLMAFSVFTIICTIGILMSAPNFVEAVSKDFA

As a reminder, the stoichiometry N is the number of molecules, sites or subunits per partner or assembly. As for B1, the Kd is 4 µM in series [1] and 4.2 µM in series [3]. Further, the “stoichiometry N” value in series [2] was found to be 5.

Take B2: in series [4], the “stoichiometry N” value was 5.

With B3, the “stoichiometry N” value in series [5] turned out to be 5.

As for B4, the Kd is 3.1 µM in series [6] and 3.3 µM in series [7].
